Measured values as given in article PMC6238616.

Columns and labels:
[1] = target: synaptotagmin binding cytoplasmic RNA interacting protein (SYNCRIP), wild type, LUMIER fusion; test: LUMIER; details: read off a plot
[2] = target: SMN1, wild type, LUMIER fusion (UniProt Q16637); test: LUMIER; details: parent: est. 120000; read off a plot
SMN1, wild type, LUMIER fusion (UniProt Q16637), sequence (Q16637 whole entry, the tested form may be a part): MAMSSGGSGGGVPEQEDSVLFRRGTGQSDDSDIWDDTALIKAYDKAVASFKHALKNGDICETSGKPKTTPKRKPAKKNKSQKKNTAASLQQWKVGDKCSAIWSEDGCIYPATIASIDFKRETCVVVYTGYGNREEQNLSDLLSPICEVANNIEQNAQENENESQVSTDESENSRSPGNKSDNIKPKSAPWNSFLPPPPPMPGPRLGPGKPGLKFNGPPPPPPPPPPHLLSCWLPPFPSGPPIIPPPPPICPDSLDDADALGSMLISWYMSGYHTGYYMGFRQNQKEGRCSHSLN

SMN1, wild type, LUMIER fusion (from UniProt Q16637) SMN1 DD MT, sequence (Q16637 whole entry, change not shown, the tested form may be a part): as the sequence (Q16637 whole entry, the tested form may be a part) above

response ([1]; parent: est. 100000)	response [2]	response ([1]; parent: est. 180000)	Substance
32000 RU	–	–	PHF1, wild type, LUMIER fusion (from UniProt O43189) Y47A
–	37000 RU	110000 RU	SMN1, wild type, LUMIER fusion (from UniProt Q16637) SMN1 DD MT
–	–	91000 RU	SMN1, wild type, LUMIER fusion (from UniProt Q16637) Y127L
